These results are taken from patent publication US12006368 (SURROZEN OPERATING, dated 2024).

Where a chain is given by its changes, count along the chain named.

The target in test [1] is T1, Fzd1 cysteine rich domain (CRD), C-terminally biotinylated (human, UniProt Q9UP38 101-230). The experiment in a line: BLI; **=Kd 100-2000 nM. The method, then: (§1) Binding kinetics of antibody fragments to a variety of Fzd cysteine rich domain (CRD) protein targets (Fzd1, Fzd2, Fzd3, Fzd4, Fzd5, Fzd6, Fzd7, Fzd8, Fzd9 and/or Fzd10 CRDs) was determined by bio-layer interferometry (BLI) using Octet Red 96 (PALL ForteBio, Fremont, CA) instruments at 30° C., 1000 rpm with streptavidin (SA) biosensors. C-terminal biotinylated Fzd CRD recombinant protein was diluted to 20 nM in the running buffer (PBS, 0.05% Tween-20, 0.5% BSA, pH 7.2) and captured to the SA biosensor until coupling length reached 0.2 nm. Following capture of the Fzd CRD, the SA biosensor with captured biotinylated-Fzd CRD was dipped into wells containing the relevant antibody fragment at […] (0, 1.37, 4.12, 12.4, 37, 111.1, 333.3, 1000 nM) in running buffer, plus a well with only running buffer as a reference channel. […] was determined by global fitting, 1:1 binding model according to manufacturer recommended settings.
(§2) Table 1B provides clone IDs, the sequence identifier number of the antibody heavy chain fragment and/or light chain fragment, if present, for illustrative clones. In certain embodiments, the Fzd binding domain is an Fab or was derived from an Fab, so the heavy chain of Table 1B includes VH and CH1 sequence, but not CH2 or CH3 sequences. In certain embodiments, the Fzd binding domain is a VHH or sdAb® or was derived from a VHH or sdAb, so Table 1B includes the VHH domain. […] The Kd values were determined by BLI as described above. Blank entries denote that the binding to the specific Fzd receptor has not yet been determined. The entry of "n.b." indicates no binding.
On the technique in general: Biolayer interferometry detects binding as a change in optical thickness at a sensor tip.

The target of test [2] is T1, Fzd1 cysteine rich domain (CRD), …. The experiment in a line: BLI; *=Kd <100 nM. The protocol:
as §1, §2

The target is the same in test [3]. The experiment in a line: BLI; **=Kd >100 nM. The protocol: as §1
(§3) One antibody fragment, clone 001S-A04, was selected for alanine-scanning mutagenesis of CDRs, and the respective Fzd1 binding affinities of the various mutants were determined by Octet BLI as described in Example 1.

The target is the same in test [4]. Description: BLI; *=Kd <=100 nM. The protocol:
as §1, §3

Test [5] deals with Fzd2 cysteine rich domain (CRD), C-terminally biotinylated (human, UniProt Q14332 24-155). The experiment in a line: BLI; **=Kd 100-2000 nM. The protocol:
as §1, §2

Test [6] has as its target Fzd7 cysteine rich domain (CRD), C-terminally biotinylated (human, UniProt O75084 36-165). Description: BLI; **=Kd 100-2000 nM. The method, then: as §1, §2

B1: 002S-F03 (VHH)
VHH: AVQLVESGGGLVQAGGPLRLSCAASGRTSSSYAMGWFRQAPGKEREFVAAISWSGGSTYYADSVKGRFTISRDNAKNTVYLQMDSPIPEDTAVYYCAAGPIARWYRGDMDYWGKGTLVTVSS
B1 yielded a Kd in test [1] of 100 to 2000 nM.

B2: 002S-A04 (VHH)
VHH: B1 VHH with P17S, A23T, S29F, G56R, D84N, P86L, I87K, P88S, V93A
Consider B2, for which, in test [2], the Kd was less than 100 nM.

B3: 002S-C02 (VHH)
VHH: DVQLVESGGGLVQTGGSLRLSCVASGRTFRAYAMGWFRQAPGKEREFVSAISWSGGSTYYAGSVKGRFTISRDSAKNTVHLQMDSLIPEDTAVYYCAAGPIARWYRGDMDYWGKGTLVTVSS
B3 showed a Kd in test [2] of less than 100 nM.

B4: 002S-D04 (VHH)
VHH: QVKLEESGGGLVQAGGSLRLSCAASGGTSSTYAMGWFRQAPGKEREFVAAINRSGGSTYYADSVKGRFTISRDNAKNTVYLQMNSLNPEDTAVYYCAAVFLSRNYEIQEYYRYQGQGTQVTVSS
In test [1], B4 returned an equilibrium dissociation constant (Kd) of 100 to 2000 nM.

B5: 001S-B03 (Fab, V domains shown)
VH: QVQLQQWGAGLLKPSETLSLTCAVSGASFSGHYWTWIRQPPGKGLEWIGEIDHTGSTNYEPSLRSRVTISVDTSKNQFSLNLKSVTAADTAVYYCARGGQGGYDWGHYHGLDVWGQGTTVTVSS
VL: SYVLTQPPSVSVSPGQTASITCSGDKVGHKYASWYQQKPGQSPVLVIYEDSQRPSGIPVRFSGSNSGNTATLTISGTQAMDEADYYCQAWDSSTDVVFGGGTKLTVLG
notes: also called 1RC07
For the molecule B5, the equilibrium dissociation constant (Kd) in test [2] was less than 100 nM.

B6: 002S-B01 (VHH)
VHH: B3 VHH with D1E, T14A, V23T, R27S, R30S, A31N, S49A, S54G, Y59F, A61S
With B6, the Kd in test [2] was less than 100 nM.

B7: 001S-A04 mutant VHT6A (Fab, V domains shown)
VH: EVQLVQSGAEVKKPGASVKVSCKASGYTFTSYGISWVRQAPGQGLEWMGWISAYNGNTNYAQKLQGRVTMTTDTSTSTAYMELRSLRSDDTAVYYCASSKEKAAYYYGMDVWGQGTTVTVSS
VL: QAVVLQEPSLSVSPGGTVTLTCGLSSGSVSTNYYPSWYQQTPGQAPRTLIYYTNTRSSDVPERFSGSIVGNKAALTITGAQPDDESVYFCLLYLGRGIWVFGGGTKLTVLG
Regarding B7, the KD in test [3] was greater than 100 nM.

B8: 001S-A04 mutant VLR6A (Fab, V domains shown)
VH: B7 VH with A104T
VL: B7 VL with R96A
B8 showed a KD in test [4] of no more than 100 nM.

B9: 001S-A04 mutant VLL2A (Fab, V domains shown)
VH: B7 VH with A104T
VL: B7 VL with L92A
Turning to B9, in test [4], the KD is no more than 100 nM.

B10: 001S-A04 mutant VLL4A (Fab, V domains shown)
VH: B7 VH with A104T
VL: B7 VL with L94A
Turning to B10, the KD in test [4] was no more than 100 nM.

B11: 001S-A04 mutant VLL1A (Fab, V domains shown)
VH: B7 VH with A104T
VL: B7 VL with L91A
Take B11: in test [4], the KD was no more than 100 nM.

B12: 001S-A04 mutant VLV10A (Fab, V domains shown)
VH: B7 VH with A104T
VL: B7 VL with V100A
The molecule B12 yielded a KD in test [4] of no more than 100 nM.

B13: 001S-A04 mutant VLY3A (Fab, V domains shown)
VH: B7 VH with A104T
VL: B7 VL with Y93A
B13: in test [4], the KD was no more than 100 nM.

B14: 001S-A04 mutant VLI8A (Fab, V domains shown)
VH: B7 VH with A104T
VL: B7 VL with I98A
B14: the KD in test [4] is no more than 100 nM.

B15: 002S-B04 (VHH)
VHH: DVQLVESGGGLVQAGGSLRLSCAASGRTFSSYAMGWFRQAPGKEREFVAAISWSGGSTYYADSVKGRFTISRDNAKNTVYLQMNSLKPEDTAVYYCAAGPNYSWFMPSSSRLIWGQGTLVTVSS
B15 showed a Kd in test [1] of 100 to 2000 nM.

B16: 002S-E02 (VHH)
VHH: QVQLVESGGGLVQPGGSLRLSCAASGFTFREYAMTWVRQSPGKRLEWVSGISRDGGRTSYSDSLKGRFTISRDNAKNTLYLQMNNLTPEDTAVYYCAPRVLVTAPSGGMDYWGKGTQVTVSS
Turning to B16, in test [1], the Kd fell in the range of 100 to 2000 nM.

B17: 002S-G02 (VHH)
VHH: AVQLVDSGGGLMQAGGSLRLSCAASGRTFGTWAMGWFRQAPGKEREFVAAISYNGFSTYYSDAVKGRFTISRDNAKNTMYLQMDSLIPEDTAVYYCAAGPIARWYRGDMDYWGKGTQVTVSS
With B17, in test [1], the Kd is 100 to 2000 nM.

B18: 005S-H05 (Fab, V domains shown)
VH: QVQLVQSGAEVKKPGASVKVSCKASGYTFTSYYMHWVRQAPGQGLEWMGRINPNSGGTNYAQKFQGRVTMTRDTSTSTVYMELSSLRSEDTAVYYCARVPDFWSGYLDYWGQGTLVTVSS
VL: DIQMTQSPSSLSASVGDRVTITCRASQGISSALAWYQQKPGKAPKLLIYAASSLQSGVPSRFSGSGSGTDFTLTISSLQPEDFATYYCQQTYSMPITFGQGTRLEIKR
As for B18, in test [5], the Kd lay in the range of 100 to 2000 nM.

B19: 001S-A03 (Fab, V domains shown)
VH: QLQLQESGPGLVKPSQTLSLTCTVSGGSISSGGYYWSWIRQHPGKGLEWIGYIYYSGSTYYNPSLKSRVTISVDKSKNQFSLKLSSVTAADTAVYYCARVRDYYDSSGYYYDYFDYWGQGTLVTVSS
VL: DIQLTQSPSSLSASVGDRVTITCRASRSISSYFNWYQQKPGKAPKLLIYAASSLQSGVPSRFSGSRSGTDFTLTISSLQPEDFATYYCQQADTFPPTFGQGTRLEIKR
Regarding B19, the results for the Kd in test [2], in test [5] and in test [6] were less than 100 nM, 100 to 2000 nM and 100 to 2000 nM, respectively.

B20: 001S-B01 (Fab, V domains shown)
VH: QLQLQESGSGLVKPSQTLSLTCAVSGGSISSGGYSWSWIRQPPGKGLEWIGSIYHSGSTYYNPSLKSRLTISVDTSKNQFSLKLSSVTAADTAVYYCARFYYDILTGYSYFDYWGQGTLVTVSS
VL: DIVMTHTPLSLSVTPGEPASISCRSSRSLLDTDDGNTYLDWYLQKPGQSPQLLIHTLSHRASGVPDRFSGSGSGTDFTLKISRVEAEDVGVYYCMQSIQLPWTFGQGTKVEIKR
Regarding B20, the Kd in test [5], in test [6] and in test [1] was 100 to 2000 nM throughout.

B21: 001S-G02 (Fab, V domains shown)
VH: QVQLQESGPGLVKPSETLSLTCTVSGGAISGTSYFWGWIRQPPGKGLEWIGSIYYTGNTYYNPSLKSRLTVSVDTSKNQFSLNLNSVTAADTATYYCARIGIAVAAPVDHWGQGTLVTVSS
VL: EIVLTQSPATLSLSPGEGATLSCRASQSVGTYLTWYRQKPGQAPRLLIYDASNRATGIPARFSGSGAGTDFTLKISRVEAEDVGVYYCMQATQFPLTFGQGTKVEIKR
With B21, the Kd in test [5], in test [6] and in test [1] was 100 to 2000 nM in each case.

B22: 001S-H02 (Fab, V domains shown)
VH: QVQLQESGPGLVKPSETLSLTCTVSGGSISSSSYYWGWIRQHPGKGLEWIGYIYYSGSTYYNPSLKSRVTISVDTSKNQFSLKLNSVTAADTAVYYCARATYGGDAFDIWGQGTMVTVSS
VL: QSVVTQPPSVSGAPGQRVTISCTRSSSNIGAGYDVHWYQQHPGTAPKLLIFGNSIRPSGVPDRFSGSKSGTSATLGITGLQTGDEADYYCGTWDSSLSAWVFGGGTKLTVLG
For B22, the Kd in test [5], in test [6] and in test [1] was 100 to 2000 nM in each case.

B23: 003S-E07 (Fab, V domains shown)
VH: QVQLVQSGAEVKKPGSSVKVSCKASGYTFTNNFMHWVRQAPGQGLEWMGWINPNSGGTKYAQKFQGRVTITADESTSTAYMELSSLRSEDTAVYYCARSVGEVGATMLGIGVWYWFDPWGQGTLVTVSS
VL: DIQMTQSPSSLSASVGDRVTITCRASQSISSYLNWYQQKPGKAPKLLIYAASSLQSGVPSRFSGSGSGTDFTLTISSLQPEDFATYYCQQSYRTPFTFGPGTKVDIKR
notes: also called R2M9
As to B23, the dissociation constant (Kd) in test [5] fell in the range of 100 to 2000 nM.

As a reminder, the Kd is the concentration at which binding is half-saturated. As a reminder, the KD is the constant that tells how readily two partners part at equilibrium.
